Source: patent US10829560B2, “Agents binding specifically to human cadherin-17, human cadherin-5, human cadherin-6 and human cadherin-20 RGD motif” (CONSEJO SUPERIOR DE INVESTIGACIONES CIENTÍFICAS, priority 2015, dated 2020)

Experiments:
RKO and KM12SM cells [1] = assay: Soluble binding assay using CDH17 ectodomain as ligand (flow cytometry); format: cell-based, human; conditions: 10 μg/mL, FIG. 3E
Procedure: (§1) For soluble binding assays, cells were detached, incubated for 40 min with CDH17 ectodomain (10 μg/mL) at 37° C. in Ca2+, Mg2+ and Mn2+-free HBSS medium (Life Technologies), washed, incubated with anti-CDH17 antibodies at 4° C., washed again, incubated with secondary antibodies and analyzed by flow cytometry. For cell adhesions to CDH17 Domain 6 (2-10 μg/mL), adhesion assays in 96 wells microtiter plates were performed as above but in medium containing 1 mM MnCl2 and cells were washed gently, using a multi-channel pipette. For blocking assays, cells were preincubated with anti-β1 integrin (5 μg/mL) for 10 min before adhesion.

β1 integrin = target: T1, β1 integrin (Homo sapiens, UniProt P05556+P17301); assay: β1 integrin activation by CDH17 proteins or cadherin RGD peptides (HUTS21 flow cytometry); format: cell-based; conditions: for β1 integrin in high-affinity conformation: RKO and KM12SM cells, FIG. 5B, 5C; for conformational change of β1-integrin into a high affinity conformation: 9 aa peptides, MDA-MB-468, BLM and RKO cells, FIG. 16; for induction of β1 integrin activation: RKO cells, 1 μg/mL peptide, FIG. 17
T1 construct: endogenous in cells; host or cells: RKO (A4); RKO, KM12SM, MDA-MB-468 and BLM (A9)
T1 sequence (P05556 21-798): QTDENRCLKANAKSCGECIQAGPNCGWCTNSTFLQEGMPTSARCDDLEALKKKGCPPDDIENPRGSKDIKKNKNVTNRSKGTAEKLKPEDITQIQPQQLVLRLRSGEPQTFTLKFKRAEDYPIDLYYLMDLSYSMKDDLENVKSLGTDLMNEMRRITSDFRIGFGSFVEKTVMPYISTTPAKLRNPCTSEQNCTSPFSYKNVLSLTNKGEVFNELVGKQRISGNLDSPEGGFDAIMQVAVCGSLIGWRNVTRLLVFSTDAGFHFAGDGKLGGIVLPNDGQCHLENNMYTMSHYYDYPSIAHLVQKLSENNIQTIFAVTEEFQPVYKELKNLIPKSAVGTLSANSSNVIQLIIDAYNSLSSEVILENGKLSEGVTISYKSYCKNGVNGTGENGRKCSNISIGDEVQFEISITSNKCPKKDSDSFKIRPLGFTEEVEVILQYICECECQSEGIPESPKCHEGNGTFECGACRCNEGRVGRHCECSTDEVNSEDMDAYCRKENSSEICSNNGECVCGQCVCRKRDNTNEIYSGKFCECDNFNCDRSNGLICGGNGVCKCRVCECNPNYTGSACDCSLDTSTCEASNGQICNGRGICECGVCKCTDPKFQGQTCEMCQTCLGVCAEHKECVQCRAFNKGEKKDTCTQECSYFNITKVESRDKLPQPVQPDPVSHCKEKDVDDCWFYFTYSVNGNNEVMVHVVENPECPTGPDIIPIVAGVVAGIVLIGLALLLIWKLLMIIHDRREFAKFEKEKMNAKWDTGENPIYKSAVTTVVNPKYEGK
T1 sequence (P17301 30-1181): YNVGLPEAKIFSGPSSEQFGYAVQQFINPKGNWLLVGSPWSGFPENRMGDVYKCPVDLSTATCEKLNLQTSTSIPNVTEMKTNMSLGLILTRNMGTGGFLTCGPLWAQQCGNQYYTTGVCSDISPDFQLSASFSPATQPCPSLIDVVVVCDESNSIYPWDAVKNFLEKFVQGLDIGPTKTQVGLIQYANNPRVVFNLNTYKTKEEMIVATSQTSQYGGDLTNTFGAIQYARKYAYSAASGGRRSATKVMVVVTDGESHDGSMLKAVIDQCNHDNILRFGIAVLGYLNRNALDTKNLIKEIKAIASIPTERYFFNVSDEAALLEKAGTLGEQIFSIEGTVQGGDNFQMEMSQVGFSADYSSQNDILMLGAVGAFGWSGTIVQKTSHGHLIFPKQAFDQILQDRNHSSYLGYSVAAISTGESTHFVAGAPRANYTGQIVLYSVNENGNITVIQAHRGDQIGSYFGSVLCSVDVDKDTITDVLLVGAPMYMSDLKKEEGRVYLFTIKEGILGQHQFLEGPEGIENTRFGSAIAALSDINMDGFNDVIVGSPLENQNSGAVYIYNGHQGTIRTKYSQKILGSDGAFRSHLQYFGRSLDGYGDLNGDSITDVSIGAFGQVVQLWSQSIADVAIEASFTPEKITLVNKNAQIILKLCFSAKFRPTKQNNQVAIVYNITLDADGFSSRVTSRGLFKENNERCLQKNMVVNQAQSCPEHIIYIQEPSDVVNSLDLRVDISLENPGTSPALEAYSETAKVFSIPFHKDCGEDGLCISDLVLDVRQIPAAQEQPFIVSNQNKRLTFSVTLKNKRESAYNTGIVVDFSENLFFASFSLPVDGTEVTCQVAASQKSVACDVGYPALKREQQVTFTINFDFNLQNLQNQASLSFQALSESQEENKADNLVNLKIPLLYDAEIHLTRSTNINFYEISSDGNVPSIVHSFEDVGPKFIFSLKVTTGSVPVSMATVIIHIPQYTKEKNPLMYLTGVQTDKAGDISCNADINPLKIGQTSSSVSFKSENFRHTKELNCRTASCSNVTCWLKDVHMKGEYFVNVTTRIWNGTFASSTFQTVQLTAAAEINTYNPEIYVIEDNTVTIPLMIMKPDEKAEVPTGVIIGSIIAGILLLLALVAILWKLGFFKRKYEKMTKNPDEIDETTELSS
Procedure: Cells were detached with 2 mM EDTA in PBS, incubated at 4° C. with primary antibodies (10 μg/ml) for 30 min, washed and incubated with Alexa 488 labelled-secondary antibodies (anti-mouse IgG or anti-rabbit IgG, Dako). Fluorescence was analysed in a Coulter Epics XL cytofluorometer. Mean fluorescence intensities for the indicated antibodies are shown inside each panel. As a reference, irrelevant control antibodies (anti-cadherin-11, Santa Cruz Biotechnologies) gave a mean fluorescence intensity of 0.3.
RKO cells were detached with 2 mm EDTA in PBS, washed with PBS, resuspended in DMEM and incubated with a 9-amino acid peptide containing the RGD motif and the flanking sequences from cadherin 5 (SEQ ID NO: 37 for the RGD motif of domain 2 (CDH5A), and SEQ ID NO: 19 for the RGD motif of domain 3 (CDH5B)), cadherin 6 (SEQ ID NO: 38), cadherin 17 (VSLRGDTRG) (SEQ ID NO: 1), cadherin 20 (SEQ ID NO: 39), and cadherin 16 (SEQ ID NO: 31, RAIRGDTEG) for 25 min at 37° C. in presence of immune sera or control serum (diluted 1:50). After incubation, cells were subjected to flow cytometry assays using anti-β1 integrin in high-affinity conformation antibodies (Huts21, BD Pharmingen) and Alexa 488-coupled anti-mouse IgG antibodies (Abcam). Fluorescence was analysed in a Coulter Epics XL cytofluorometer. Mean fluorescence intensities for the indicated antibodies are shown inside each panel. As a reference, irrelevant control antibodies gave a mean fluorescence intensity of 0.3.
Alternatively, RKO cells were starved for 4 h, detached with EDTA 2 mM in PBS, and incubated in serum-free DMEM with 1 μg/mL of the following peptides: 9 aa peptides including the RGD motifs and the flanking sequences corresponding to the cadherin 17 (SEQ ID NO: 1) and the two motifs present in cadherin-5 (SEQ ID NO: 37 for the RGD motif of domain 2 (CDH5A), and SEQ ID: 19 for the RGD motif of domain 3 (CDH5B)), and 7 aa or 5 aa peptides with 2 aa or 1 aa respectively in each side of the RGD motif corresponding to the sequence of CDH17, SLRGDTR (SEQ ID NO: 32), and LRGDT (SEQ ID NO: 14), respectively. Simultaneously the cells were incubated to the indicated anti-CDH17 RGD monoclonal antibodies (10 μg/mL). After 40 min, cells were washed and subjected to flow cytometry assays using HUTS21 antibody, which binds to β1-integrin in high affinity conformation. Data were collected in a FACScalibur™ cytometer (BD) and represented as % of the β1-integrin activation induced by the 9 aa CDH17 RGD peptide (SEQ ID NO: 1).

RKO and KM12SM cells [2] = assay: Cell adhesion to Matrigel after incubation with CDH17 DOM6 or Ecd; format: cell-based, human; conditions: FIG. 5D
Procedure: For cell adhesion, 96-well plates were coated with Matrigel (4 μL/mL) (BD Biosciences) or type IV collagen ([…]) (Sigma-Aldrich) in coating buffer (0.1 M NaHCO3 pH 8.8) for 20 h and incubated with adhesion medium (0.4% BSA in serum-free DMEM) for 2 h to block unspecific binding. Cell were starved for 5 h without serum, labeled with BCECF-AM (Invitrogen), detached with 2 mM EDTA in PBS, resuspended in serum-free DMEM and 7×10^4 cells in 100 μL were added to plates in triplicate and then incubated for 25 min. Non-adherent cells were removed by three washes with DMEM. Bound cells were quantified using a fluorescence analyzer (POLARstar Galaxy).

RKO and KM12SM cells [3] = assay: Cell adhesion to plates coated with CDH17 domain 6; format: cell-based, human; conditions: for inhibition of cell adhesion to CDH17 domain 6 wt: FIG. 4B; for optimal dose for promoting cell adhesion to coated plates: FIG. 4A
Procedure: as §1

CDH17 ectodomain: purified recombinant CDH17 ectodomain (wild type) expressed in baculovirus
binding to the cell surface (RKO and KM12SM cells [1]): bound to the cell surface | β1 integrin in high-affinity conformation (β1 integrin): enhanced the amount of β1 integrin in high-affinity conformation | cell adhesion to Matrigel after incubation (RKO and KM12SM cells [2]): significant increase in cell adhesion to Matrigel

DMDRGDGSI (listed as Homo sapiens) [SEQ ID NO: 39]
conformational change of β1-integrin into a high affinity conformation (β1 integrin): induced the conformational change of β1-integrin into a high affinity conformation

DQDRGDGSL (listed as Homo sapiens) [SEQ ID NO: 38]
conformational change of β1-integrin into a high affinity conformation (β1 integrin): induced the conformational change of β1-integrin into a high affinity conformation

Ecd RAD: recombinant CDH17 ectodomain mutant lacking RGD motif (RAD)
binding to the cell surface (RKO and KM12SM cells [1]): unable to bind to cells | cell adhesion to Matrigel after incubation (RKO and KM12SM cells [2]): significantly enhanced

LRGDT (listed as Homo sapiens)
induction of β1 integrin activation (β1 integrin): able to induce efficiently the integrin activation

QGLRGDSGT (listed as Homo sapiens) [CDH5A]
conformational change of β1-integrin into a high affinity conformation (β1 integrin): induced the conformational change of β1-integrin into a high affinity conformation | induction of β1 integrin activation (β1 integrin): able to activate beta1 integrin

RADS [RADS peptide]
inhibition of cell adhesion to CDH17 domain 6 wt (RKO and KM12SM cells [3]; both cell lines): did not inhibit cell adhesion

RAIRGDTEG (listed as Homo sapiens) [SEQ ID NO: 31, reference compound]
conformational change of β1-integrin into a high affinity conformation (β1 integrin): not

RAIRRGDTEG (listed as Homo sapiens) [CDH16 RGD, reference compound]
β1 integrin in high-affinity conformation (β1 integrin): had no effect on β1 integrin activation

RGDS [RGDS peptide]
concentration at which competition of cell adhesion to CDH17 domain 6 wt started (RKO and KM12SM cells [3]; both cell lines, 1 mM MnCl2, FIG. 4B): 1 µM | inhibition of cell adhesion to CDH17 domain 6 wt (RKO and KM12SM cells [3]; both cell lines): clear dose-dependent effect

SILRGDYQD (listed as Homo sapiens) [CDH5 RGD peptide]
conformational change of β1-integrin into a high affinity conformation (β1 integrin): induced the conformational change of β1-integrin into a high affinity conformation | induction of β1 integrin activation (β1 integrin): able to activate beta1 integrin

SLRGDTR (listed as Homo sapiens)
induction of β1 integrin activation (β1 integrin): able to induce efficiently the integrin activation

VSLRGDTRG (listed as Homo sapiens) [CDH17 peptide]
conformational change of β1-integrin into a high affinity conformation (β1 integrin): induced the conformational change of β1-integrin into a high affinity conformation | β1 integrin in high-affinity conformation (β1 integrin): increased high-affinity conformation β1 integrin in both cell lines

B1: domain 6 wt: recombinant CDH17 domain 6 (571-665) expressed in E. coli (protein)
chain: FQAKVSEDVAIGTKVGNVTAKDPEGLDISYSLRGDTRGWLKIDHVTGEIFSVAPLDREAGSPYRVQVVATEVGGSSLSSVSEFHLILMDVNDNPP
optimal dose for promoting cell adhesion to coated plates (RKO and KM12SM cells [3]; KM12SM): 10 µg/mL | optimal dose for promoting cell adhesion to coated plates (RKO and KM12SM cells [3]; RKO): 2 µg/mL | β1 integrin in high-affinity conformation (β1 integrin): enhanced the amount of β1 integrin in high-affinity conformation | cell adhesion to Matrigel after incubation (RKO and KM12SM cells [2]): significant increase in cell adhesion to Matrigel | cell adhesion to Matrigel after incubation (RKO and KM12SM cells [2]; listed as CDH17 DOM6 wt): significantly enhanced
